Patent CN110760003A

Target: 人HER3胞外区蛋白 (human HER3 extracellular region protein) (human) (UniProt P21860)
Test: ELISA; human HER3 extracellular region coated at 2 μg/mL, scFv at 2 μg/mL, detected with HRP anti-6×His Tag antibody, TMB, triplicate wells (mean ± deviation)

B1: 抗HER3单链抗体 (anti-HER3-scFv) (scFv)
scFv: QVQLVESGGGLVQPGGSLRLSCAASGFTFSSYAMSWVRQAPGKGLEWVSAINSQGKSTYYADSVKGRFTISRDNSKNTLYLQMNSLRAEDTAVYYCARWGDEGFDIWGQGTLVTVSSGGGGSGGGGSGGGGSDIQMTQSPSSLSASVGDRVTITCRASQGISNWLAWYQQKPGKAPKLLIYGASSLQSGVPSRFSGSGSGTDFTLTISSLQPEDFAVYYCQQYSSFPTTFGQGTKVEIK
B1 was tested, and the 吸光度(A450)均值 was 0.961 A450.
